According to paper PMC4561382, “Aven recognition of RNA G-quadruplexes regulates translation of the mixed lineage leukemia protooncogenes”:

Tests used:
[1] = target: T1, Aven DiRGG peptide (human, UniProt Q9NQS1); experiment: fluorescence plate binding (immobilized peptide); K+-folded RNA; joint range (173-200 in author response); RNA folded in 10 mM Tris-acetate pH 7.7, 200 mM K-acetate, 5 mM Mg-acetate (75 C 10 min, 21 C 5 min); peptide assay 1 h at room temperature, washes in this buffer; pull-down 100 nM RNA in cell lysate with 2 mg/ml heparin, 1 h on ice, beads 30 min at 4 C; conditions: tags: N-terminal biotin; G4
T1 chain: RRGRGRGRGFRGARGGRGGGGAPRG

[2] = target: T2, Aven TriRG peptide (human, UniProt Q9NQS1); experiment: fluorescence plate binding (immobilized peptide); K+-folded RNA; range given jointly for TriRG and TriRGme; RNA folded in 10 mM Tris-acetate pH 7.7, 200 mM K-acetate, 5 mM Mg-acetate (75 C 10 min, 21 C 5 min); peptide assay 1 h at room temperature, washes in this buffer; pull-down 100 nM RNA in cell lysate with 2 mg/ml heparin, 1 h on ice, beads 30 min at 4 C; conditions: tags: N-terminal biotin; G4
T2 chain: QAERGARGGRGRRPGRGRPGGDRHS

**Q.** What does the source list for GCUGCGGUGUGGAAGGAGUGGUCGGGUUGCGCAGCG (structured_RNA) [sc1 G4 (fluorescein)]?
**A.** Kd [1]: ~187 nM; Kd [2]: ~84.8 nM
